{
  "source": "patent US20240254220A1",
  "about": "(CENTRICSBIO, published 2024)",
  "binders": {"B1": {"name": "CL7 (antibody, V domains shown)", "VH": "EVQLLESGGGLVQPGGSLRLSCAASGFTFSRYAMSWVRQAPGKGLEWVSAISGSGGSTYYADSVKGRFTISRDNSKNTLYLQMNSLRAEDTAVYYCARSSQGIFDIWGQGTLVTVSS", "VL": "QSVLTQPPSASGTPGQRVTISCSGNNIGTRRVHWYQQLPDTAPKLLIYSKNNRPSGVPDRFSGSKSGTSASLAISGLRSEDEADYYCAAWDDSLSGPVFGGGTKLTVL", "notes": "detected with anti-human IgG (H+L) and anti-Fc IgG; also called anti-CD300c monoclonal antibody CL7; anti-CD300c monoclonal antibody (CL7)"}},
  "assay_in_all_cases": "binding ELISA on coated antigen (8 µg/mL), HRP anti-Fc detection, 450 nm (Experimental Example 2.5)",
  "key": {"[1]": {"target": "T1, ICOS Ligand[B7-H2] (Sino Biological) (UniProt O75144 19-258, limits assumed)", "T1 sequence (looked up)": "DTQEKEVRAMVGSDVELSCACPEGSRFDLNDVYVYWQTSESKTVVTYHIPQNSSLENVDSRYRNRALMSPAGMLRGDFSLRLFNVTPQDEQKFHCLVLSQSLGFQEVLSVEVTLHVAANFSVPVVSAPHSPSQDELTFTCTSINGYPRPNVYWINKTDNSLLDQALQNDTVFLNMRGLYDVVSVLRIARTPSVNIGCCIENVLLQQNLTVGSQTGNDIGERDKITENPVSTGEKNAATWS", "experimental": "(§1) In order to identify that the anti-CD300c monoclonal antibody CL7 specifically binds only to CD300c without binding to other B7 family proteins, binding ELISA was performed. More specifically, each of CD300c antigen, CD300a antigen, or seven B7 family protein antigens (PD-L1 [B7-H1] (Sino Biological), ICOS Ligand[B7-H2] (Sino Biological), CD276[B7-H3] (Sino Biological), B7-H4 (Sino Biological), CD80[B7-1] (Sino Biological), CD86[B7-2] (Sino Biological), CD273[PD-L2] (Sino Biological)) in a coating buffer (0.1 M sodium carbonate, pH 9.0) was coated on an ELISA plate at a concentration of 8 μg/mL per well, and then bound to the plate by incubation at 2° C. to 8° C. overnight. The unbound antigen was removed by washing with PBST three times, and then […] of blocking buffer (5% skim milk in PBST) was added to each well. Subsequently, blocking was performed at room temperature for 1 hour, followed by washing again with PBST. Thereafter, CL7 was diluted in quadruplicate with PBS, incubated with the antigen at room temperature for 1 hour for antigen binding 1 hour later, and washed three times with PBST. Then, a secondary antibody (HRP-conjugated anti-Fc IgG) diluted to 4 μg/mL in blocking buffer was added thereto, followed by incubation at room temperature for 1 hour. Subsequently, the unbound antibody for detection was removed using PBST, and then a TMB solution was added thereto, followed by incubation for 10 minutes for development. Then, 2 N sulfuric acid solution was added to terminate the development reaction, and the absorbance was measured at 450 nm to identify the antibody specifically binding to the CD300c antigen."}, "[2]": {"target": "T2, CD300c antigen (11832-H08H, Sino Biological) (human, UniProt Q08708 21-183)", "T2 construct": "Bought antigen; also called CD300c protein; CD300 antigen-like family member C", "T2 sequence (looked up)": "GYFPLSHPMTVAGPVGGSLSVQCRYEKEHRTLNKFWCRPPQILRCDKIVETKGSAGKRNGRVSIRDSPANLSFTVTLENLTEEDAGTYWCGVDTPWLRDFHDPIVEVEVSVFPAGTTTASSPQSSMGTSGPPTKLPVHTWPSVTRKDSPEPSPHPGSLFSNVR", "experimental": "as §1"}, "[3]": {"target": "PD-L1 [B7-H1] (Sino Biological) (UniProt Q9NZQ7 19-239)", "sequence (Q9NZQ7 19-239 limits assumed)": "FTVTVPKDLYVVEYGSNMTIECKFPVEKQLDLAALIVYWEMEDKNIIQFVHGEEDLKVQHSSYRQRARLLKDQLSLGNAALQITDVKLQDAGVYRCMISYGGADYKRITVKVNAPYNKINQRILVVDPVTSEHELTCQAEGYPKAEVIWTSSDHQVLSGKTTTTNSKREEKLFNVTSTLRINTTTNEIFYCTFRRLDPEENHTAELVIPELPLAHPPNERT", "experimental": "as §1"}, "[4]": {"target": "T3, CD273[PD-L2] (Sino Biological) (UniProt Q9BQ51 20-219, limits assumed)", "T3 sequence (looked up)": "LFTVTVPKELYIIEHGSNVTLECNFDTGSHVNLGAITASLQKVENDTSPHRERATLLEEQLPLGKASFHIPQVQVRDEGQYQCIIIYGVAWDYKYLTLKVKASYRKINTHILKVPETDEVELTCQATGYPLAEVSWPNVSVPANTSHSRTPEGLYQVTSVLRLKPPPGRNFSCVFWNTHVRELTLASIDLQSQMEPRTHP", "experimental": "as §1"}, "[5]": {"target": "T4, CD80[B7-1] (Sino Biological) (UniProt P33681 35-242)", "T4 sequence (looked up)": "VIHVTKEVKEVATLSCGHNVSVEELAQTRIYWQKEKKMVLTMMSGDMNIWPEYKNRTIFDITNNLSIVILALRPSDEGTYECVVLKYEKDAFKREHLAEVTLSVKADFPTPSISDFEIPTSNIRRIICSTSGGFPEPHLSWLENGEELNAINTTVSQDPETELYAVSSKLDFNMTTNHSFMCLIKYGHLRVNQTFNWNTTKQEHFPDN", "experimental": "as §1"}, "[6]": {"target": "T5, CD86[B7-2] (Sino Biological) (UniProt P42081 24-245, limits assumed)", "T5 sequence (looked up)": "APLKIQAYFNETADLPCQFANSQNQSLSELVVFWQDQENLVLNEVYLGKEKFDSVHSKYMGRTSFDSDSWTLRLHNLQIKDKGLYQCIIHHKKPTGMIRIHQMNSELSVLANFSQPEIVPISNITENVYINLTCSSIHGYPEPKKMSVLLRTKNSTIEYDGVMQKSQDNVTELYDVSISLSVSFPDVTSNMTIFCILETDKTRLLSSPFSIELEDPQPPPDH", "experimental": "as §1"}, "[7]": {"target": "T6, CD276[B7-H3] (Sino Biological) (UniProt Q5ZPR3 29-461, limits assumed)", "T6 sequence (looked up)": "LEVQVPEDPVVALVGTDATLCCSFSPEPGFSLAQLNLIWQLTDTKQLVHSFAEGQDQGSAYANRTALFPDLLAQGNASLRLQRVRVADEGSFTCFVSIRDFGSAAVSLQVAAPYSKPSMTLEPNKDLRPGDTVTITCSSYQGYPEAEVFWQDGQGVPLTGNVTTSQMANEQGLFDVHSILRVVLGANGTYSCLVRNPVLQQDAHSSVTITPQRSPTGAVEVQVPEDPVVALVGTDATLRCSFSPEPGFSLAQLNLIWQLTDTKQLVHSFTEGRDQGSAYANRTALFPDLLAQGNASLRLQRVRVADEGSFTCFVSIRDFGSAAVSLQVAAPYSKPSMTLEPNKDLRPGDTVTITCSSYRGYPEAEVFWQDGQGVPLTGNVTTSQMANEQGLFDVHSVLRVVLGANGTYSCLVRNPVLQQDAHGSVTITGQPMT", "experimental": "as §1"}},
  "data": [
    {"binder": "B1", "values": [
      {"measurement": "binding result", "setting": "[1]", "result": "no binding (tested: log10 about 0.4 ug/ml (about 2.5 ug/ml))"},
      {"measurement": "EC50 (read off the curve)", "setting": "[2]", "result": "~0.2", "unit": "µg/mL"},
      {"measurement": "binding result", "setting": "[3]", "result": "no binding (tested: log10 about 0.4 ug/ml (about 2.5 ug/ml))"},
      {"measurement": "binding result", "setting": "[4]", "result": "no binding (tested: log10 about 0.4 ug/ml (about 2.5 ug/ml))"},
      {"measurement": "binding result", "setting": "[5]", "result": "no binding (tested: log10 about 0.4 ug/ml (about 2.5 ug/ml))"},
      {"measurement": "binding result", "setting": "[6]", "result": "no binding (tested: log10 about 0.4 ug/ml (about 2.5 ug/ml))"},
      {"measurement": "binding result", "setting": "[7]", "result": "no binding (tested: log10 about 0.4 ug/ml (about 2.5 ug/ml))"}
    ]}
  ]
}
